Source: patent US20150322165A1 (SAMSUNG ELECTRONICS, published 2015)

Assays:
[1] = target: T1, EGFR-Fc (#344-ER, R&D Systems) (UniProt P00533 25-645); experiment: SPR (Biacore T100), MEH3-01S captured by human Fab binder on CM5 chip, EGFR-Fc injected
T1 construct: Bought reagent; not shown: Fc part of the bought fusion; not described
Experimental: (§1) The affinity of the anti-c-Met/anti-EGFR/anti-HER3 multispecific antibody prepared in Example 2 to EGFR and HER3 was measured. A human Fab binder (GE Healthcare) was immobilized at the surface of a CM5 chip (#BR-1005-30, GE) according to the manufacturer's specifications. About 90 to 120 RU of the MEH3-01S was captured, and the EGFR-Fc(#344-ER, R&D Systems) or HER3-Fc(#344-ER, R&D Systems) was injected at various concentrations into the captured antibody. 10 mM Glycine-HCl (pH 1.5) solution was injected thereto to regenerate the surface.
(§2) To examine affinity of the antibody, the data obtained from this experiment was fitted using BIAevaluation software (GE Healthcare, Biacore T100 evaluation software).

[2] = target: T2, HER3-Fc (#344-ER, R&D Systems) (UniProt P21860 20-643); experiment: SPR (Biacore T100), MEH3-01S captured by human Fab binder on CM5 chip, HER3-Fc injected
T2 construct: Bought reagent; not shown: Fc part of the bought fusion; not described
Experimental: as §1, §2

[3] = target: T3, human c-Met/Fc fusion protein (R&D Systems) (human, UniProt P08581 25-932); experiment: ELISA, hybridoma culture on plate-bound human c-Met/Fc fusion protein
T3 construct: Bought reagent, coated on ELISA plates; also called human c-Met/Fc protein; not shown: Fc part of the bought fusion; not described
Experimental: The hybridoma cell culture obtained in Reference Example 1.1.2 was added in an amount of 50 μL to each well of the plates and incubated for 1 hour. The cells remaining unreacted were washed out with a sufficient amount of Tris-buffered saline and Tween 20 (TBST). Goat anti-mouse IgG-horseradish peroxidase (HRP) was added to the plates and incubated for 1 hour at room temperature. The plates were washed with a sufficient amount of TBST, followed by reacting the peroxidase with a substrate (OPD). Absorbance at 450 nm was measured on an ELISA reader.

T2 sequence (P21860 20-643 limits assumed): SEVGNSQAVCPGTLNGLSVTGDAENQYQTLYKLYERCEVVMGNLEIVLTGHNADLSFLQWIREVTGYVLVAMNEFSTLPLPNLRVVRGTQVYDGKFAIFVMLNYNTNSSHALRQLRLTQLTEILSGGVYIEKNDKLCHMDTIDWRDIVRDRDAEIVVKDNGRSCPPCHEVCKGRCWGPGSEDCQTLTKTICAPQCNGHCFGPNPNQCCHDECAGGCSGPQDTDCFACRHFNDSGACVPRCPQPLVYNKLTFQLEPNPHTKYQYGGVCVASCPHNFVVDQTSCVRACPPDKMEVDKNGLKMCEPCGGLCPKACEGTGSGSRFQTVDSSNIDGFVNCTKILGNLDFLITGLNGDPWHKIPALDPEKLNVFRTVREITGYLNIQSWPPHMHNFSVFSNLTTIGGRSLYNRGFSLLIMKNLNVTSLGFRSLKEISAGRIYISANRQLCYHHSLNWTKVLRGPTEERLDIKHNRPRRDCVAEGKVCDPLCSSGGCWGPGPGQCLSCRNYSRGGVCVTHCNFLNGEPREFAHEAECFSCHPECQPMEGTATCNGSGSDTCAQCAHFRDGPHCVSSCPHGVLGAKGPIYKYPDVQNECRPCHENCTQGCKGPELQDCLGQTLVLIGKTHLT
T3 sequence (P08581 25-932 limits assumed): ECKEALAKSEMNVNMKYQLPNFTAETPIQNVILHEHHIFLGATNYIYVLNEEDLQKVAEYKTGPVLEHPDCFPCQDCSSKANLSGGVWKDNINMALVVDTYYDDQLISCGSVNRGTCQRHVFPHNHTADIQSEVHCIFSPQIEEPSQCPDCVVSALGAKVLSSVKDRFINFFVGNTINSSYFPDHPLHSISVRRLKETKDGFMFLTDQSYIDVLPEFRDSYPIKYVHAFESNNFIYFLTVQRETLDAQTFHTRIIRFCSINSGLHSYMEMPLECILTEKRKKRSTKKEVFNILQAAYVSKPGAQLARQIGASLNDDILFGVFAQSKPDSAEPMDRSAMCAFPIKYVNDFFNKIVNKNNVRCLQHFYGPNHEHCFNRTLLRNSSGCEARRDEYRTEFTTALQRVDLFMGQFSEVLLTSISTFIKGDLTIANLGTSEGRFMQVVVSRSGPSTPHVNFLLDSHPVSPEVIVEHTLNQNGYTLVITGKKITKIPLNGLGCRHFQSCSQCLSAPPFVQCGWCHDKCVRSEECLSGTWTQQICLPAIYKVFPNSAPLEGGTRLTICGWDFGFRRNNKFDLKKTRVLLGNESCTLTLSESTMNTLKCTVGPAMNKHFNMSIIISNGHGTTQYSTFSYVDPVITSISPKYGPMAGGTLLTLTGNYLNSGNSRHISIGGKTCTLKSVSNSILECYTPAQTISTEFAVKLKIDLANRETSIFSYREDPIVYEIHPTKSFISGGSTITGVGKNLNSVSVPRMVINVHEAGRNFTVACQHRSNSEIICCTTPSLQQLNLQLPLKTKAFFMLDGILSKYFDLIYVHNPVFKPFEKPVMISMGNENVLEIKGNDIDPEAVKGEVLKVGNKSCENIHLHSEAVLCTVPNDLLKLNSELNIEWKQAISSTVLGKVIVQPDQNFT

| Kd [1] | koff [1] | kon [1] | Kd [2] | koff [2] | kon [2] | binding result [3] | Binder |
| --- | --- | --- | --- | --- | --- | --- | --- |
| 0.18 nM | 0.00011 s⁻¹ | 1e+06 M⁻¹ s⁻¹ | < 0.01 nM | < 1.6e-05 s⁻¹ | 3.4e+06 M⁻¹ s⁻¹ | – | anti-c-Met/anti-EGFR/anti-HER3 multispecific antibody MEH3-01S (bispecific antibody, human IgG2, kappa, DL11f scFv fused to the C-terminus of the heavy chain (Fc) of the anti-c-Met IgG2 antibody SAIT301) heavy: EVQLVESGGGLVQPGGSLRLSCAASGFTFTDYYMSWVRQAPGKGLEWLGFIRNKANGYTTEYSASVKGRFTISRDNSKNTLYLQMNSLRAEDTAVYYCARDNWFAYWGQGTLVTVSSASTKGPSVFPLAPCSRSTSESTAALGCLVKDYFPEPVTVSWNSGALTSGVHTFPAVLQSSGLYSLSSVVTVPSSNFGTQTYTCNVDHKPSNTKVDKTVERKCCVECPPCPAPPVAGPSVFLFPPKPKDTLMISRTPEVTCVVVDVSHEDPEVQFNWYVDGVEVHNAKTKPREEQFNSTFRVVSVLTVVHQDWLNGKEYKCKVSNKGLPAPIEKTISKTKGQPREPQVYTLPPSREEMTKNQVSLTCLVKGFYPSDIAVEWESNGQPENNYKTTPPMLDSDGSFFLYSKLTVDKSRWQQGNVFSCSVMHEALHNHYTQKSLSLSPGKGGGGSGGGGSGGGGSEVQLVESGGGLVQPGGSLRLSCAASGFTLSGDWIHWVRQAPGKCLEWVGEISAAGGYTDYADSVKGRFTISADTSKNTAYLQMNSLRAEDTAVYYCARESRVSFEAAMDYWGQGTLVTVSSGGGGSGGGGSGGGGSDIQMTQSPSSLSASVGDRVTITCRASQNIATDVAWYQQKPGKAPKLLIYSASFLYSGVPSRFSGSGSGTDFTLTISSLQPEDFATYYCQQSEPEPYTFGCGTKVEIK light: DIQMTQSPSSLSASVGDRVTITCKSSQSLLASGNQNNYLAWYQQKPGKAPKMLIIWASTRVSGVPSRFSGSGSGTDFTLTISSLQPEDFATYYCQQSYSRPYTFGQGTKVEIKRTVAAPSVFIFPPSDEQLKSGTASVVCLLNNFYPREAKVQWKVDNALQSGNSQESVTEQDSKDSTYSLSSTLTLSKADYEKHKVYACEVTHQGLSSPVTKSFNRGEC |
| – | – | – | – | – | – | binds | AbF46, a mouse antibody to c-Met (antibody, V domains shown, Tested as hybridoma culture supernatant in the selection ELISA; also called monoclonal antibody of hybridoma KCLRF-BP-00220) VH: EVKLVESGGGLVQPGGSLRLSCATSGFTFTDYYMSWVRQPPGKALEWLGFIRNKANGYTTEYSASVKGRFTISRDNSQSILYLQMDTLRAEDSATYYCARDNWFAYWGQGTLVTVSA VL: DILMTQSPSSLTVSAGEKVTMSCKSSQSLLASGNQNNYLAWHQQKPGRSPKMLIIWASTRVSGVPDRFIGSGSGTDFTLTINSVQAEDLAVYYCQQSYSAPLTFGAGTKLELK |
